Experimental data: patent publication US20100261660A1 (published 2010)

biological target: T1, Soluble CD28-Ig (extracellular domain of human CD28 fused to the Fc portion of human IgG1) (human, UniProt P10747 19-152, biotin-conjugated (NHS-biotin) in the FACS binding assays); assay: competitive FACS on transfected cells, biotin-sCD28-Ig with FITC-sCTLA-4-Ig; grade 0-2 of CD28/CTLA-4 ratio vs WT hB7-1
T1 construct: extracellular domain; bought from R&D Systems; also called sCD28-Ig; CD28-Ig Fc; not shown: Fc portion of human IgG1

Binder | Binding Score
Round 1 CD28BP-126 (ligand, also called R1clone 126; Clone 126) ITPKSVTKRVKETVMLSCDYSTSTEELTSLRIYWQKDSKMVLAILPGKVQVWPEYKNRTITDMNDNPRIVILALRLSDSGTYTCVIQKPDLKGAYKLEHLTSVRLMIRADFPVPTINDLGNPSPNIRRLICSTSGGFPRPHLYWLENGEELNATNTTVSQDPGTELYMISSELDFNVTNNHSIVCLIKYGELSVSQIFPWSKPKQEPPIDQLPFWVIIPVSGALVLTAVVLYCLACRHVARWKRTRRNEETVGTERLSPIYLGSAQSSG | 1
Round 2 CD28A6-9 (ligand) ITPKSVTKRVKETVMLSCDYNTSTEELTSLRIYWQKDSKMVLAILPGKVQVWPEYKNRTITDMNDNPRIVILALRLSDSGTYTCVIQKPVLKGAYKLEHLASVRLMIRADFPVPTINDLGNPSPNIRRLICSTSGGFPRPHLYWLENGEELNATNTTVSQDPGTELYMISSELDFNVTNNHSIVCLIKYGELSVSQIFPWSKPKQEPPIDQLPFLVIIPVSGALVLTAVVLYCLACRHVARWKRTRRNEETVGTERLSPIYLGSAQSSG | 1
Round 2 CD28A6-1 (ligand) ITPKSVTKRVKETVMLSCDYNTSTEELTSLRIYWQKDSKMVLAILPGKVQVWPEYKNRTITDMNDNPRIVILALRLSDSGTYTCVIQKPVLKGAYKLEHLASVRLMIRADFPVPTINDLGNPSPNIRRLICSTSGGFPRPHLYWLENGEELNATNTTVSQDPETKLYMISSELDFNVTNNHSIVCLIKYGELSVSQIFPWSKPKQEPPIDQLPFRVIIPVSGALVLTAIVLYCLACRHVARWKRTRRNEETVGTERLSPIYLGSAQSSG | 1
Round 2 CD28A4-5* (ligand) ITPKSVTKRVKETVMLSCDYNTSTEELTSLRIYWQKDSKMVLAILPGKVQVWPEYKNRTITDMNDNPRIVILALRLSDSGTYTCVIQKPVLKGAYKLEHLTSVRLMIRADFPVPTINDLGNPSPNIRRLICSTSGGFPRPHLYWLENGEELNATNTTLSQDPETKLYMISSELDFNVTNNHSIVCLIKYGELSVSQIFPWSKPKQEPPIDQLPFWVIIPVSGALVLTAVVLYCLACRHVARWKRTRRNEETVGTERLSPIYLGSAQSSG | 1
Round 1 (R1) CD28BP-71 (ligand, also called R1clone71; Clone 71) ITPKSVTKRVKETVMLSCDYNTSTEELTSLRIYWQKDSKMVLAILPGKVQVWPEYKNRTITDMNDNPRIVILALRLSDSGTYTCVIQKPVLKGAYKLEHLASVRLMIRADFPVPTINDLGNPSPNIRRLICSTSGGFPRPHLYWLENGEELNATNTTLSQDPETKLYMISSELDFNMTSNHSFLCLVKYGDLTVSQTFYWQESKPTPSANQHLTWTIIIPVSAFGISVIIAVILTCLTCRNAAIRRQRRENEVEMQSCSQSP | 1
Round 2 CD28D10-4 (ligand) SGITPKSVTKRVKETVMLSCDYNTSTEELTSLRIYWQKDSKMVLAILPGKVQVWPEYKNRTITDMNDNPRIVILALRLSDKGTYTCVVQKNENGSFRREHLTSVTLSIRADFPVPSITDIGHPAPNVKRIRCSASGGFPEPRLAWMEDGEELNAVNTTVDQDLDTELYSVSSELDFNVTNNHSIVCLIKYGELSVSQIFPWSKPKQEPPIDQLPFWVIIPVSGALVLTAVVLYCLACRHVARWKRTRRNEETVGTERLSPIYLGSAQSSG | 0

Further lines, results first:

Binding Score | Binder
2 | Round 2 CD28BP-8 (ligand) ITPKSVTKRVKETVMLSCDYNTSTEELTSLRIYWQKDSKMVLAILPGKVQVWPEYKNRTITDMNDNPRIVILALRLSDSGTYTCVIQKPVLKGAYKLEHLASVRLMIRADFPVPSITDIGHPAPNVKRIRCSASGGFPEPRLAWMEDGEELNAVNTTVDQDLDTELYSVSSELDSNVTNNHSIVCLIKYGELSVSQIFPWSKPKQEPPIDQLPFWVIIPVSGALVLTAVVLYCLACRHVARWKRTRRNEETVGTERLSPIYLGSAQSSG
1 | Round 2 CD28A8-4 (ligand) ITPKSVTKRVKETVMLSCDYNTSTEELTSLRIYWQKDSKMVLAILPGKVQVWPEYKNRTITDMNDNPRIVILALRLSDSGTYTCVIQKPVLKGAYKLEHLTSVRLMIRADFPVPTINDLGNPSPNIRRLICSTSGGFPRPHLYWLENGEELNATNTTVSQDPGTELYMISSELDFNVTNNHSIVCLIKYGELSVSQIFPWSKPKQEPPIDQLPFWVIIPVSGALVLTAVVLYCLACRHVARWKRTRRNEETVGTERLSPIYLGSAQSSG
2 | Round 2 CD28BP-17 (ligand) SGITPKSVTKRVKETVMLSCDYSTSTEELTSLRIYWQKDSKMVLAILPGKVQVWPEYKNRTFPDIINNLSLMILALRLSDKGTYTCVVQKNENGSFRREHLTSVTLSIRADFPVPSITDIGHPAPNVKRIRCSASGDFPEPRLAWMEDGEELNAVNTTVDQDLDTELYSVSSELDFNVTNNHSIVCLIKYGELSVSQIFPWSKPKQEPPIDQLPFWVIIPVSGALVLTVVVLYCLACRHVARWKRTRRNEETVGTERLSPIYLGSAQSSG
1 | Round 2 CD28G1-5 (ligand) SGITPKSVTKRVKETVMLSCDYSTSTEELTSLRIYWQKDSKMVLAILPGKVQVWPEYKNRTFPDIINNLSLMILALRLSDKGTYTCVVQKNENGSFRREHLTSVTLSIRADFPVSSITDIGHPAPNVKRIRCSASGGFPEPRLAWMEDGEELNAVNTTVDQDLDTELYSVSSELDFNVTNNHSIVCLIKYGELSVSQIFPWSKPKQEPPIDQLPFWVIIPVSGALVLTAVVLYCLACRHVARWKRTRRNEETVGTERLSPIYLGSAQSSG
1 | Round 2 CD28A8-6 (ligand) SGITPKSVTKRVKETVMPSCDYSTSTEELTSLRIYWQKDSKMVLAILPGKVQVWPEYKNRTITDMNDNPRIVILALRLSDSGTYTCVVQKNENGSFRREHLTSVTLSIRADFPVPSITDIGHPAPNVKRIRCSASGGFPEPRLAWMEDGEELNAVNTTVDQDLDTELYSVSSELDFNVTNNHSIVCLIKYGELSVSQIFPWSKPKQEPPIDQLPFWVIIPVSGALVLTAVVLYCLACRHVARWKRTRRNEETVGTERLSPIYLGSAQSSG
2 | Round 2 CD28BP-11 (ligand) SGITPKSVTKRVKETVMLSCDYNASTEELTSLRIYWQKDSKMVLAILPGKVQVWPEYKNRTITDMNDNPRIVILALRLSDKGTYTCVVQKNENGSFRREHLTSVTLSIRADFPVPSITDIGHPAPNVKRIRCSASGGFPEPRLAWMEDGEELNAVNTTVDQDLDTELYSVSSELDFNVTNNHSIVCLIKYGELSVSQIFPWSKPKQEPPIDQLPFWVIIPVSGALVLTAVVLYCLACRHVARWKRTRRNEETVGTERLSPIYLGSAQSSG
0 | Round 2 CD28F3-5 (ligand, also called GD28F3-5) SGITPKSVTKRVKETVMLSCDYNTSTEELTSLRIYWQKDSKMVLAILPGKVQVWPEYKNRTITDMNDNPRIVILALRLSDSGTYTCVVQKNENGSFRREHLTSVTLSIRADFPVPSITDIGHPAPNVKRIRCSASGGFPEPRLAWMEDGEELNAVNTTVDQDLDTELYSVSSELDFNVTNNHSIVCLIKYGELSVSQIFPWSKPKQEPPIDQLPFWVIIPVSGALVLTAVVLYCLACRHVARWKRTRRNEETVGTERLSPIYLGSAQSSG

biological target: T2, Soluble CTLA-4-Ig (extracellular domain of human CTLA-4 fused to the Fc portion of human IgG1) (human, UniProt P16410 36-161, FITC-conjugated in the FACS binding assays); assay: competitive FACS on transfected cells, FITC-sCTLA-4-Ig with biotin-sCD28-Ig; grade 0-2 of CTLA-4/CD28 ratio vs WT hB7-1
T2 construct: extracellular domain; bought from R&D Systems; also called sCTLA-4-Ig; CTLA-4-Ig Fc; not shown: Fc portion of human IgG1
T2 sequence (P16410 36-161): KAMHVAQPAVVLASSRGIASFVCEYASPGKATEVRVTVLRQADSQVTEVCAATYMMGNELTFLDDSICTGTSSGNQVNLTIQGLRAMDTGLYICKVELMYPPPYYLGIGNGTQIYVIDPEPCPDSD

Binding Score | Binder
2 | Round 2 CTLA4BP-5x2-10c (ligand) VIHVTKEVKEVATLSCGHNVSVEELAQTRIHWQKEKKMVLTMMSGDMNIWPEYKNRTIFDITNNLSIVILALRPSDEGTYECVVLKYEKDAFKREHLAEVMLSVKADFPTPSITDFEIPPSNIRRIICSTSGGFPEPHLSWLENGEELNAINTTVSQDPETELYTVSSKLDFNMTANHSFVCLIKYGHLRVNQTFNWNTPKQEHFPDNLLPSWAITLISVNGIFVICCLTYCFAPRCRERRNETLRRESVRPV
2 | Round 2 CTLA4BP-5x2-11d (ligand) VIHVTKEVKEVATLSCGHNVSVEELAQTRIHWQKEKKMVLTMMSGDMNIWPEYKNRTIFDITNNLSIVILALRPSDEGTYECVVLKYEKDAFKREHLAEVMLSVKADFPTPSITDFEIPPSNIRRIICSTSGGFPEPHLFWLENGEELNAINTTVSQDPETELYTVSSKLDFNMTTDRSFVCLIKYGHLRVNQTFNWNTPKQEHFPDNLLPSWAITLISANGIFVICCLTYCFAPRCRERKSNETLRRESVRPV
0 | Round 2 CTLA4 A-C9-9 (ligand) SGITPKSVTKRVKETVMLSCDYSTSTEELTSLRIYWQKDSKMVLAILPGKVQVWPEYKNRTFPDIINNLSLMILALRLSDRGTYTCVVQKNENGSFRREHLTSVTLSIRADFPVPSITDIGHPAPNVKRIRCSASGGFPEPRLAWMEDGEELNAVNTTVDQDLDTELYSVGSELDFNVTNNHSIVCLIKYGELSVSQIFPWSKPKQEPPIDQLPFWVIIPVSGALVLTAVVLYCLARRHVARWKRTRRNEETVGTERLSPIYLGSAQSSG
1 | Round 2 CTLA4 A-H4-5* (ligand) ITPKSVTKRVKETVMLSCDYSTSTEELTSLRIYWQKDSKMVLAILPGKVQVWPEYKNRTITDMNDNPRIVILALRLSDKGTYTCVVQKNENGSFRREHLTSVTLSIRADFPVPSITDIGHPAPNVKRIRCSASGGFPEPRLYWLENGEELNATNTTVSQDPGTELYMISSELDFNVTNNHSIVCLIKYGELSVSQIFPWSKPKQEPPIDQLPFWVIIPVSGALVLTAVVLYCLACRHVARWKRTRRNEETVGTERLSPIYLGSAQSSG
1 | Round 1 CTLA4BP-7 (ligand, also called R1-7; R1 CTLA-4BP-7) VIHVTNEVKEVATLSCGHNVSGEELAQTRIYWQKEKKMVLTMMYGDMNIWPEYKNRTIFDITNNLSIVILALRPSDEGTYECVVLKYEKDAFKREHLAEVMLSVKADFPTPSITDFEIPPSNIRRIICLTSGGFPEPRLAWMKDGEELNAISTTVSQDPGTELYAVSSKLDFNMTTNHSFMCLIKYGHLRVNQTFSWNTPKQEHFPDNLLPSWAITLISVNGIFVICCLTYCFAPRCRERRRNERLRRESVRPV
